Experimental data reported in patent US20190298850A1.

Biological target: IL-21 (human) (UniProt Q9HBE4)
Assay: cell-based or functional assay

UniProt Q9HBE4, sequence (Q9HBE4 25-162 limits assumed): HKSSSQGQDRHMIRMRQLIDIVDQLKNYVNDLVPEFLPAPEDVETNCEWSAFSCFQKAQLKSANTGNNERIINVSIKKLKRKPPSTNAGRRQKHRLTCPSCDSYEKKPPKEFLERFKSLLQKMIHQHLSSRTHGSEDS

## IL-21R-Ig fusion protein (from UniProt Q9HBE5 20-232) (Fc fusion)
  decrease in plasma cell differentiation of memory B cells co-cultured with blood PD-1hi CXCR5+ or PD-1hi CXCR5- CD4+ T cells: 90%
